# Test results taken from patent US10357539B2, “Use of peptides that block metadherin-SND1 interaction as treatment for cancer” (THE TRUSTEES OF PRINCETON UNIVERSITY, priority 2014, dated 2019).
# Residue numbers refer to the chain shown, from its start. Names and notes keep the numbering of the source.
# T1: MTDH (364-582) (Homo sapiens, UniProt Q86UE4)
# T1 construct: made in house; host or cells: E. coli DH5α
# T1 sequence (Q86UE4 364-582): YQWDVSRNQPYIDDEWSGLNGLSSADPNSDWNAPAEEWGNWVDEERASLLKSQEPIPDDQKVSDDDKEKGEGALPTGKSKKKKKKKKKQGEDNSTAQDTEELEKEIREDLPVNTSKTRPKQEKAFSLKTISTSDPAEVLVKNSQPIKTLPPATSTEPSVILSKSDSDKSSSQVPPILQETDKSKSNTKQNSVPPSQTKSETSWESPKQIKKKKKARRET
# T2: SND1 (Homo sapiens, UniProt Q7KZF4)
# T2 construct: 15 μg of His-SND1 (16-339) was added to the resin; made in house; host or cells: E. coli DH5α
# T2 sequence (Q7KZF4 16-339): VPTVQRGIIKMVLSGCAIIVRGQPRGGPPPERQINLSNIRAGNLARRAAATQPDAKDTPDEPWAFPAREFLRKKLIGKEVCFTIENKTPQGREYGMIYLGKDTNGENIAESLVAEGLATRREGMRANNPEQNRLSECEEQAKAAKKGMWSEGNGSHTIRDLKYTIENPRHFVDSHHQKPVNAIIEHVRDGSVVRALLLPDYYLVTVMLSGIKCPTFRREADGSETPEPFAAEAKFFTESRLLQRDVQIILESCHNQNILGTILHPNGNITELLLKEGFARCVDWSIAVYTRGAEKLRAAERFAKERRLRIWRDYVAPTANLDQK
# T3: SND1 (Homo sapiens, UniProt Q7KZF4)
# T3 construct: Full-length HA-tagged SND1 was co-expressed with full-length Myc-tagged wild-type (WT) or mutant MTDH in HEK293T cells; expressed in transfected cells; host or cells: HEK293T
# T3 sequence (Q7KZF4 1-910): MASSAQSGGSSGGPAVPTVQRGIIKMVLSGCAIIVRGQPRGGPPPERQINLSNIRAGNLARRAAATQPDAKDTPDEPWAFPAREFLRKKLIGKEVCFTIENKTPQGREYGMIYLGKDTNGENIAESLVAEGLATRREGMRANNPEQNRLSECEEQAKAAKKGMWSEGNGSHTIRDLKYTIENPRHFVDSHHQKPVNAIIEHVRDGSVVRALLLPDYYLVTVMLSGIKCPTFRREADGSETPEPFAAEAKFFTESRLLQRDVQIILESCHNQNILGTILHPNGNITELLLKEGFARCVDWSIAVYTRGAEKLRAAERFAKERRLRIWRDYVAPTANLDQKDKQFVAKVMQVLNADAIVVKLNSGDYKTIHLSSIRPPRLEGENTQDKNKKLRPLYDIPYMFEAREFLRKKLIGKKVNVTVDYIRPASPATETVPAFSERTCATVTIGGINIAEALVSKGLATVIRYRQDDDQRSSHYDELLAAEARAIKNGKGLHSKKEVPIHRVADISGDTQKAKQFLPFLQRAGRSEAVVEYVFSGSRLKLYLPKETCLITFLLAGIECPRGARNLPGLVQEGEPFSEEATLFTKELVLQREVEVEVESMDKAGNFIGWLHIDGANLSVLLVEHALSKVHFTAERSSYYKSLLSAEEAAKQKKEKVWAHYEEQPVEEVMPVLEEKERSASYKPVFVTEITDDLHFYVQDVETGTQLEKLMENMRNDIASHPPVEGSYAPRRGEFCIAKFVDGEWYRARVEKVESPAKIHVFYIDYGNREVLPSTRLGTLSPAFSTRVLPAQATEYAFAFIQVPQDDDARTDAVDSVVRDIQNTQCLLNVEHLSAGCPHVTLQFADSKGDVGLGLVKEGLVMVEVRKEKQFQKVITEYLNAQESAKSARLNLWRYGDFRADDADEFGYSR
# B1: SN1/2 domains: SND1 N-terminal SN1/2 domains, amino acids 16-339 of SEQ ID NO: 2 (protein, listed as Homo sapiens)
# chain: T2 sequence (Q7KZF4 16-339)
# B2: R324A: SND1 mutant R324A (protein)
# chain: T2 sequence (Q7KZF4 16-339) with R309A
# modifications: left off: small tags and cut ends
# B3: D389R: MTDH single point mutant D389R (protein, listed as Homo sapiens)
# chain: MAARSWQDELAQQAEEGSARLREMLSVGLGFLRTELGLDLGLEPKRYPGWVILVGTGALGLLLLFLLGYGWAAACAGSRKKRRSPPRKREEAAAVPAAAPDDLALLKNLRSEEQKKKNRKKLSEKPKPNGRTVEVAEGEAVRTPQSVTAKQPPEIDKKNEKSKKNKKKSKSDAKAVQNSSRHDGKEVDEGAWETKISHREKRQQRKRDKVLTDSGSLDSTIPGIENTITVTTEQLTTASFPVGSKKNKGDSHLNVQVSNFKSGKGDSTLQVSSGLNENLTVNGGGWNEKSVKLSSQISAGEEKWNSVSPASAGKRKAEPSAWSQDTGDANTNGKDWGRSWSDRSIFSGIGSTAEPVSQSTTSDYQWDVSRNQPYIDDEWSGLNGLSSARPNSDWNAPAEEWGNWVDEERASLLKSQEPIPDDQKVSDDDKEKGEGALPTGKSKKKKKKKKKQGEDNSTAQDTEELEKEIREDLPVNTSKTRPKQEKAFSLKTISTSDPAEVLVKNSQPIKTLPPATSTEPSVILSKSDSDKSSSQVPPILQETDKSKSNTKQNSVPPSQTKSETSWESPKQIKKKKKARRET
# B4: SN3/4-TSN5 domains: SND1 C-terminal SN3/4-TSN5 domains, amino acids 340-885 of SEQ ID NO: 2 (protein, listed as Homo sapiens)
# chain: DKQFVAKVMQVLNADAIVVKLNSGDYKTIHLSSIRPPRLEGENTQDKNKKLRPLYDIPYMFEAREFLRKKLIGKKVNVTVDYIRPASPATETVPAFSERTCATVTIGGINIAEALVSKGLATVIRYRQDDDQRSSHYDELLAAEARAIKNGKGLHSKKEVPIHRVADISGDTQKAKQFLPFLQRAGRSEAVVEYVFSGSRLKLYLPKETCLITFLLAGIECPRGARNLPGLVQEGEPFSEEATLFTKELVLQREVEVEVESMDKAGNFIGWLHIDGANLSVLLVEHALSKVHFTAERSSYYKSLLSAEEAAKQKKEKVWAHYEEQPVEEVMPVLEEKERSASYKPVFVTEITDDLHFYVQDVETGTQLEKLMENMRNDIASHPPVEGSYAPRRGEFCIAKFVDGEWYRARVEKVESPAKIHVFYIDYGNREVLPSTRLGTLSPAFSTRVLPAQATEYAFAFIQVPQDDDARTDAVDSVVRDIQNTQCLLNVEHLSAGCPHVTLQFADSKGDVGLGLVKEGLVMVEVRKEKQFQKVITEYLNAQESA
# Assays:
# MTDH (364-582) = target: T1, MTDH (364-582); assay: GST-mediated pull-down of SND1 constructs and mutants by GST-tagged MTDH (364-582); format: binding; conditions: SND1 mutants in SND1 (16-339)
# Excerpt: (§1) (FIG. 22A) In vitro pull-down of SND1 (16-339) by GST-tagged MTDH (364-582) harboring WT or mutant sequence. The proteins bound to GS4B were examined on SDS-PAGE and visualized by Coomassie blue staining. (FIG. 22B) In vitro pull-down of WT and mutant SND1 (16-339) by GST-tagged MTDH (364-582). The bound proteins were examined as in (FIG. 22A). For both (FIG. 22A) and (FIG. 22B), experiments were repeated three times; representative results are shown. The normalized percentage of binding was averaged from three experiments; mean±SEM was shown below the data. (FIG. 22C) HEK293T cells were transfected with human HA-SND1, WT Myc-MTDH or Myc-MTDH with indicated single point mutation. Lysates were immunoprecipitated with anti-Myc antibody and immunoblotted with the indicated antibodies. (FIG. 22D) HEK293T cells were transfected with human Myc-MTDH, WT HA-SND1 or mutant HA-SND1 with indicated single point mutations or deletions. Lysates were immunoprecipitated with anti-Myc and immunoblotted with the indicated antibodies.
# (§2) GST-Mediated Pull-Down Assay: ˜20 μg of GST-MTDH (different truncation forms and site mutants) was bound to 10 μl of glutathione resin via GST tag. The resin was washed with 200 μl assay buffer (25 mM Tris, PH8.0, 150 mM NaCl, 3 mM DTT) three times to remove the excess unbound protein. 15 μg of His-SND1 (16-339) was added to the resin in a 100 μl volume suspended in the assay buffer with 2 mg/ml of BSA. The mixture was washed with 200 μl assay buffer twice before examined by SDS-PAGE, and visualized by Coomassie blue staining. The experiments were repeated 3 times and the ratio of SND1 associated with GST-MTDH was analyzed by ImageJ.
# SND1 [1] = target: T2, SND1; assay: GST-mediated pull-down of SND1 by GST-tagged MTDH fragments and mutants; format: binding; conditions: SND1 (16-339); GST-tagged MTDH (364-582)
# Excerpt: (§3) FIGS. 7A-E represents determination of key regions and residues mediating the MTDH-SND1 interaction. (FIG. 7A) Schematics of MTDH fragments and mutants with indicated SND1-binding capability. + indicates binding and − indicates no binding based on results shown below. Two putative nuclear localization signals are residues 432-451 for NLS2 and residues 561-580 for NLS3. In the enlarged view of the minimal binding region 386-407, 9 residues were targeted for mutagenesis in the current study. […] (FIG. 7B) Pulldown of His6-SND1AC by GST-tagged MTDH fragments with indicated boundaries. The bound proteins were examined by SDS-PAGE and visualized by Coomassie blue staining. (FIG. 7C) Pulldown of His6-SND1ΔC by GST-tagged WT or triple mutant MTDH fragments (364-582). For (FIG. 7B) and (FIG. 7C), 1/10 of the His6-SND1ΔC input was shown, and GST alone was used as a negative control. Representative results of 3 independent experiments are shown. (FIG. 7D, FIG. 7E) Lysates from HEK293T cells expressing the indicated ectopic human SND1, AGO2 or MTDH were immunoprecipitated with anti-Myc and immunoblotted with the indicated antibodies.
# as §1, §2
# SND1 [2] = target: T3, SND1; assay: Co-immunoprecipitation of full-length Myc-MTDH (WT or mutant) and HA-SND1 in HEK293T cells; format: cell-based; conditions: HEK293T cell lysates, immunoprecipitation and immunoblot
# Excerpt: as §3, §1
# Immunoprecipitation and western blot For immunoprecipitation (IP) experiments, cultured cells were washed in cold PBS and lysed in lysis buffer (20 mM Tris pH 7.4, 0.15 M NaCl, 1 mM EDTA, 1 mM EGTA, 1% Tx-100, 0.0025 M Na2P2O7, 1 mM α-glycerolphosphate, 1 mM Na3VO4, and 1 mM NaF) with an EDTA-free protease inhibitor mixture (Roche Applied Science) and PMSF. Cell lysates were then incubated on ice for 10 min, centrifuged, and precleared by incubating with protein A/G beads (Santa Cruz Biotechnology) for 1 h at 4° C. For IP bead preparation, 30 μl of protein A/G beads were incubated with 5 μg of antibodies for 2 h at 4° C. IPs were carried out for overnight at 4° C., and beads were centrifuged, washed and subsequently boiled for 5 min in SDS protein loading buffer to elute bound protein. IP lysates were subjected to western blotting with indicated antibodies.
# Immunoprecipitation and western blot: For in vivo immunoprecipitation (IP) experiments, cultured cells were washed in cold PBS and lysed in lysis buffer (20 mM Tris pH 7.4, 0.15 M NaCl, 1 mM EDTA, 1 mM EGTA, 1% Tx-100, 0.0025 M Na2P2O7, 1 mM β-glycerolphosphate, 1 mM Na3VO4, and 1 mM NaF) with an EDTA-free protease inhibitor mixture (Roche Applied Science) and PMSF. Cell lysates were then incubated on ice for 10 min, centrifuged, and precleared by incubating with protein A/G beads (Santa Cruz Biotechnology) for 1 h at 4° C. For IP bead preparation, 30 μl of protein A/G beads were incubated with 5 μg of antibodies for 2 h at 4° C. IPs were carried out for overnight at 4° C., and beads were centrifuged, washed and subsequently boiled for 5 min in SDS protein loading buffer to elute bound protein. IP lysates were subjected to western blotting with indicated antibodies.
molecule,measurement,setting,value
B1,"MTDH-binding of SND1 domains and mutants, in vitro",MTDH (364-582),bind stoichiometrically with MTDH
B2,"MTDH-binding of SND1 domains and mutants, in vitro",MTDH (364-582),barely affected MTDH-binding
B3,"SND1-binding of MTDH (364-582) point mutants, in vitro",SND1 [1],barely had any effect
same,interaction of full-length MTDH (WT or mutant) with HA-SND1,SND1 [2],did not affect the interaction
B4,"MTDH-binding of SND1 domains and mutants, in vitro",MTDH (364-582),barely interact with MTDH
